# Data taken from patent US20120065123A1 (published 2012).
# Where no end group is shown, it is not given here.
# T1: Gal80 (UniProt P04387 1-435, limits assumed)
# T1 construct: Cy3/Cy5 or otherwise fluorescently labelled on arrays; immobilised in SPR and ELISA
# T1 sequence (looked up): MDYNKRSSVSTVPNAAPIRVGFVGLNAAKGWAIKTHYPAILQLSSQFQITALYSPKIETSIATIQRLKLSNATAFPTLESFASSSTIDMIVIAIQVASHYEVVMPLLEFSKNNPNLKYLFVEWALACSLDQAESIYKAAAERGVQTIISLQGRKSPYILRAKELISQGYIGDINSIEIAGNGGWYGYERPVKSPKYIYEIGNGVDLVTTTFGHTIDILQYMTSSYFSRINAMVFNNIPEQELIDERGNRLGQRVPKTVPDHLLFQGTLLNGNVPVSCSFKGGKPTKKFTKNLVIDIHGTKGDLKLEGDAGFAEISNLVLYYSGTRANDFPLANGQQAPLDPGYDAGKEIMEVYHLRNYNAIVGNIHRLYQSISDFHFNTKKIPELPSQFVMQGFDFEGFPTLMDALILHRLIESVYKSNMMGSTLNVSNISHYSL
# Key:
# [1] = target: T2, pooled human transferrin (Sigma), biotinylated (human, UniProt P02787 20-698, biotinylated at amines with NHS-LC-LC-Biotin); assay: SPR (Biacore A-100), biotinylated transferrin captured on Neutravidin, unpurified peptide injected for 60 s [b]
# T2 construct: Captured on Neutravidin on a CM5 chip (Biacore A-100)
# [2] = target: T1, Gal80; assay: light-directed peptide array, 25 pM labelled GAL80 with 1 mg/mL E. coli lysate; against template BP2
# Protocol: Variant peptides in the array were designed to contain both invariable and variable positions. Invariable positions were coupled using standard Fmoc solid-phase synthesis protocols. Briefly, the Fmoc protecting group was removed with 20% piperidine in DMF for 20 minutes. After deprotection, the next Fmoc amino acid was coupled to the N-terminus of the peptide chain (0.1 M Fmoc amino acid, 0.1 M HATU, 0.4 M DIPEA in DMF). Amino acid coupling times were typically 60 minutes. Variable positions in the peptide were coupled using light-directed chemistry. First, the N-terminal Fmoc group was removed from all peptides using 20% piperidine in DMF and the photolabile protecting group MeNPOC—Cl was coupled to the liberated N-terminal amines for 30 minutes. The array was then immersed in photolysis solution containing 30% β-mercaptoethanol, 7% DIPEA in acetonitrile. A photolithographic mask was projected on the substrate using a Digital Mirror Device, to selectively remove the MeNPOC protecting group in the illuminated regions. The substituted FMOC amino acid was added and allowed to couple to the selectively deprotected regions. After coupling, photodeprotection was repeated for different regions on the array and the next amino acid was coupled. This photodeprotection/coupling cycle was repeated for all substituted amino acids at a particular position in the peptide. After all peptides on the array are grown to the desired length a final side-chain deprotection is done using 95% TFA, 2.5% TIPS, 2.5% H₂O for 1 hour.
# The chemically diverse set of 10 amino acids {I, D, W, L, E, G, T, S, K, R} were selected as the amino acids to substitute into the four variable positions for a total of 10,000 unique variant peptides. Three replicates were included in the array to produce a total of 30,000 array features. The variant array (including the lead peptide) was synthesized using light-directed synthesis described above.
# [3] = target: T2, pooled human transferrin (Sigma), …; assay: SPR (Biacore A-100), biotinylated transferrin captured on Neutravidin, unpurified peptide injected for 60 s [g]
# [4] = target: T1, Gal80; assay: SPR with gal80 immobilised on the chip; Kd from on and off rates
# [5] = target: T2, pooled human transferrin (Sigma), …; assay: SPR (Biacore A-100), biotinylated transferrin captured on Neutravidin, unpurified peptide injected for 60 s [d]
# [6] = target: T2, pooled human transferrin (Sigma), …; assay: SPR (Biacore A-100), biotinylated transferrin captured on Neutravidin, unpurified peptide injected for 60 s [f]
# [7] = target: T2, pooled human transferrin (Sigma), …; assay: SPR (Biacore A-100), biotinylated transferrin captured on Neutravidin, unpurified peptide injected for 60 s [l]
# From the text: (§1) A Biacore A-100 Surface Plasmon Resonance (SPR) system was used to measure the binding response of each peptide to several different target proteins immobilized on a gold surface. The A-100 has four different flow cells and within each flow cell are five addressable spots. Therefore four different proteins and a negative control reference can be used per flow cell. Depending on the purpose of the assay, up to 16 different target proteins can be immobilized on a single SPR chip. The instrument is equipped to evaluate up to 10 384-well plates unattended and can process approximately four 384-well plates per day. Sensorgrams are collected from each immobilized protein, so a binding profile for each analyte versus each of the protein targets is generated for each injection. Target proteins were immobilized using a biotin capture approach in which a CM5 chip was activated using standard amine coupling chemistry and Neutravidin was covalently coupled to the chip. Each biotinylated protein was injected over a single spot and the amount of protein captured was measured.
# [8] = target: T2, pooled human transferrin (Sigma), …; assay: SPR (Biacore A-100), biotinylated transferrin captured on Neutravidin, unpurified peptide injected for 60 s [c]
# From the text: as §1
# [9] = target: T2, pooled human transferrin (Sigma), …; assay: SPR (Biacore A-100), biotinylated transferrin captured on Neutravidin, unpurified peptide injected for 60 s [k]
# [10] = target: T2, pooled human transferrin (Sigma), …; assay: SPR (Biacore A-100), biotinylated transferrin captured on Neutravidin, unpurified peptide injected for 60 s [j]
# [11] = target: T1, Gal80; assay: SPR, synbody in solution, surface-bound Gal80; SPR, synbody in solution, surface-bound Gal80
# [12] = target: T1, Gal80; assay: gel shift assay; gel shift assay
# [13] = target: T2, pooled human transferrin (Sigma), …; assay: SPR (Biacore A-100), biotinylated transferrin captured on Neutravidin, unpurified peptide injected for 60 s [i]
# From the text: as §1
# T2 sequence (P02787 20-698 limits assumed): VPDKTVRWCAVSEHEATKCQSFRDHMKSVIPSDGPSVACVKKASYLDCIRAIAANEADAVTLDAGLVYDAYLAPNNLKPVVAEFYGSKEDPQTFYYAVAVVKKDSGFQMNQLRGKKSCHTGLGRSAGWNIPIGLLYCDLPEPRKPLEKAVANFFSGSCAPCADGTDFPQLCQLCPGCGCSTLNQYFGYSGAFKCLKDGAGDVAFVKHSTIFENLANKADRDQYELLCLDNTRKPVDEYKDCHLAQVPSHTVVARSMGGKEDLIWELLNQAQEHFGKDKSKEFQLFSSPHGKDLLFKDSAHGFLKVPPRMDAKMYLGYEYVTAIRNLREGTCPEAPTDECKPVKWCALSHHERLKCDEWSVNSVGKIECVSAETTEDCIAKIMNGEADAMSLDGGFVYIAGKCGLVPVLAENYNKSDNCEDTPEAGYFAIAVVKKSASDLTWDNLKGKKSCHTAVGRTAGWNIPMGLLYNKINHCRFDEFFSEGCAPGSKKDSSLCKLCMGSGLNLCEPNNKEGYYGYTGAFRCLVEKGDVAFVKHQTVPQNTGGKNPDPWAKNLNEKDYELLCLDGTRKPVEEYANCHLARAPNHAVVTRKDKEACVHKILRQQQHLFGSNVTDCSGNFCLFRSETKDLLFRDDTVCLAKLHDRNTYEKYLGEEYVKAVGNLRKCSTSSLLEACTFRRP
Fold Enhancement [2] [fold],Binder,other results
10.4,EGEWTEGKKSKIGSC [BP2 variant EGEWTEGKKSKIGSC],–
10.7,EGEWTEGKKSKLGSC [BP2 variant EGEWTEGKKSKLGSC],–
8.5,EGEKTEGKKSKTGSC [BP2 variant EGEKTEGKKSKTGSC],–
11.1,EGEWTEGKKSKGGSC [BP2 variant EGEWTEGKKSKGGSC],–
10.5,EGEWTEGKKSKTGSC [BP2 variant EGEWTEGKKSKTGSC],–
9.81,EGEKTEGKKSKLGSC [BP2 variant EGEKTEGKKSKLGSC],–
11,EGEWTEGKKSKRGSC [BP2 variant EGEWTEGKKSKRGSC],–
10.7,EGEWTEGKKSKEGSC [BP2 variant EGEWTEGKKSKEGSC],–

# More lines, now with the values behind:
Binder,Fold Enhancement [2] [fold],other results
NIRMLLRFTVFPAQKLIGSC (Unpurified library peptide) [transferrin binding peptide of FIG. 60B],–,binding result [1]: binds
EGEITEGKKSKLGSC [BP2 variant EGEITEGKKSKLGSC],11.1,–
EGEITEGKKSKRGSC [BP2 variant EGEITEGKKSKRGSC],10.5,–
EGEITEGKKSKIGSC (Made in place on a glass slide by light-directed synthesis) [BP2 variant EGEITEGKKSKIGSC],11.3,–
EGEITEGKKSKTGSC [BP2 variant EGEITEGKKSKTGSC],10.6,–
EGEDTEGKKSKTGSC [BP2 variant EGEDTEGKKSKTGSC],10.2,–
EGEKTEGKKSKGGSC [BP2 variant EGEKTEGKKSKGGSC],9.24,–
EGEITEGKKSKSGSC [BP2 variant EGEITEGKKSKSGSC],9.91,–
EGEDTEGKKSKLGSC [BP2 variant EGEDTEGKKSKLGSC],10.4,–
EGEDTEGKKSKRGSC [BP2 variant EGEDTEGKKSKRGSC],10.4,–
EGEDTEGKKSKIGSC [BP2 variant EGEDTEGKKSKIGSC],10.4,–
EGEITEGKKSKEGSC [BP2 variant EGEITEGKKSKEGSC],10.9,–
EGEDTEGKKSKGGSC [BP2 variant EGEDTEGKKSKGGSC],10.8,–
EGEITEGKKSKGGSC [BP2 variant EGEITEGKKSKGGSC],10.8,–
EGEKTEGKKSKEGSC [BP2 variant EGEKTEGKKSKEGSC],9.7,–
EGEDTEGKKSKEGSC [BP2 variant EGEDTEGKKSKEGSC],10.1,–
DNSRRSAKQRIFMHVDLGSC (Unpurified library peptide) [transferrin binding peptide of FIG. 60G],–,binding result [3]: binds
"EGEWTEGKLSLRGSC (chain 1 pos 15: Cys thiol joined via SMCC maleimide to an amine-modified cytosine of the double-stranded DNA linker, which the letters cannot carry, also called BP2 alone conjugated to DNA linker) [BP2 on dsDNA]",–,Kd [4]: 982 nM
DFLWSKSGILSHASWNHGSC (Unpurified library peptide) [transferrin binding peptide of FIG. 60D],–,binding result [5]: binds
EGEITEGKGSKKGSC [BP2 variant EGEITEGKGSKKGSC],9.87,–
EGEITEGKLSKKGSC [BP2 variant EGEITEGKLSKKGSC],9.72,–
KMRTITYYHLQAILKQRGSC (Unpurified library peptide) [transferrin binding peptide of FIG. 60F],–,binding result [6]: binds
TEDNDYMVVSMVVTMEPGSC (Unpurified library peptide) [transferrin binding peptide of FIG. 60L],–,binding result [7]: binds
WMDDIDAPQDEWWVFHHGSC (Unpurified library peptide) [transferrin binding peptide of FIG. 60C],–,binding result [8]: binds
QENDQQSFGLGGMMGQAGSC (Unpurified library peptide) [transferrin binding peptide of FIG. 60K],–,binding result [9]: binds
"GTEKGTSGWLKTGSC (chain 1 pos 15: Cys thiol joined via SMCC maleimide to an amine-modified cytosine of the double-stranded DNA linker, which the letters cannot carry, also called BP1 alone conjugated to DNA linker) [BP1 on dsDNA]",–,Kd [4]: 482 nM
DRDTPWETTNKTEEGIEGSC (Unpurified library peptide) [transferrin binding peptide of FIG. 60J],–,binding result [10]: binds
"linker-optimized BP1/BP2 DNA-linked synbody (BP1 on the template strand, BP2 at position 13 from the 3' end of the variable strand) (designed binder, not fully specified (some residues, bridges); also: two DNA strands, each joined to a peptide C-terminal Cys through SMCC, double-stranded DNA linker, Two peptides held by a double-stranded DNA linker; for ELISA a third psoralen-crosslinked strand carried biotin and streptavidin-HRP; also called gal80 synbody; the linker-optimized synbody) peptide 1: GTEKGTSGWLKTGSC peptide 2: EGEWTEGKLSLRGSC",–,Kd [11]: 91 nM; Kd [12]: ~100 nM
AMMRMDMAGLNKIVFHQGSC (Unpurified library peptide) [transferrin binding peptide of FIG. 60I],–,binding result [13]: binds
